Reference: PMC6212769, “CRISPR–Cas adaptation in Escherichia coli requires RecBCD helicase but not nuclease activity, is independent of homologous recombination, and is antagonized by 5′ ssDNA exonucleases”

Experiments:
[1] = target: T1, Cas1-Cas2 complex (Escherichia coli, UniProt Q46896;P45956 1-305;1-94); assay: EMSA; no Mg2+ added; EMSA: 20 nM DNA, 0-500 nM Cas1-Cas2, 20 mM Tris-HCl pH 8.0, BSA 100 (ug/ml), 7% glycerol, 37 C 30 min; 5% acrylamide TBE gel; conditions: protein: recombinant, tags: Cas1 N-terminal His6, Cas2 untagged, chain copies: 4;2, label: 5'-Cy5 on strand 1, 10 bp duplex
T1 sequence 1: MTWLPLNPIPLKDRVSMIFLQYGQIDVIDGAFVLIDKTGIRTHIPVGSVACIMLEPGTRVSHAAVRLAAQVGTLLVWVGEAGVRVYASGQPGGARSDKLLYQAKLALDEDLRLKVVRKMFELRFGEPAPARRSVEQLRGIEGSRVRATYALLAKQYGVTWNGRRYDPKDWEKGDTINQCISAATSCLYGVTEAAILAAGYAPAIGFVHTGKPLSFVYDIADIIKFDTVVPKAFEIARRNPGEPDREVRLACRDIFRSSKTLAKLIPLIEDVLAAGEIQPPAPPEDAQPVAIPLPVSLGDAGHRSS
T1 sequence 2: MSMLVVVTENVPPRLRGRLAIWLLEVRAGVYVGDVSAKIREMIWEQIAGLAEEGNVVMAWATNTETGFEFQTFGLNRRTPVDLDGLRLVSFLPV

[2] = target: T1, Cas1-Cas2 complex; assay: EMSA; no Mg2+ added; complex formation improved over DNA-10; EMSA: 20 nM DNA, 0-500 nM Cas1-Cas2, 20 mM Tris-HCl pH 8.0, BSA 100 (ug/ml), 7% glycerol, 37 C 30 min; 5% acrylamide TBE gel; conditions: protein: recombinant; tags: Cas1 N-terminal His6; Cas2 untagged; chain copies: 4;2; label: 5'-Cy5 on strand 1; 14 bp duplex, 5' overhang 36 nt
[3] = target: T1, Cas1-Cas2 complex; assay: EMSA; no Mg2+ added; up to 500 nM; EMSA: 20 nM DNA, 0-500 nM Cas1-Cas2, 20 mM Tris-HCl pH 8.0, BSA 100 (ug/ml), 7% glycerol, 37 C 30 min; 5% acrylamide TBE gel; conditions: protein: recombinant; tags: Cas1 N-terminal His6; Cas2 untagged; chain copies: 4;2; label: 5'-Cy5 on strand 1; blunt

B1: DNA-10 (mixed)
DNA 1: AATCAAAGTGGACCCAACTCGAAATCAACCGTAACAAGCAACAAGCAGGC
DNA 2: GCCTGCTTGT
[1]; 5' overhang 40 nt
  binding result: binds

B2: DNA-14 (mixed)
DNA 1: B1 DNA 1
DNA 2: GCCTGCTTGTTGCT
[2]
  binding result: binds

B3: Duplex (dsDNA)
DNA 1: B1 DNA 1
DNA 2: GCCTGCTTGTTGCTTGTTACGGTTGATTTCGAGTTGGGTCCACTTTGATT
[3]
  binding result: no binding

B4: DNA-3' (3' overhang) (mixed)
DNA 1: CGGACGAACAACGAACAATGCCAACTAAAGCTCAACCCAGGTGAAACTAA
DNA 2: TGTTCGTCCG
[1]; 3' overhang 40 nt
  binding result: binds
